These sequences were tested on Escherichia coli TOP10 (assay: shrunken log2 fold change of peptide-encoding DNA abundance (4.5 h post-induction vs induction); higher = less antimicrobial activity (less host growth inhibition)). Conditions: time post-induction: 4.5 h; library: site-saturation at positions 5, 18, 19, 20.
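Further: peptides expressed intracellularly from a pBAD plasmid library in pooled LB shake-flask culture, induced with 0.3% L-arabinose, DNA abundance read by NGS, three biological replicates, DESeq2 with apeglm shrinkage.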

First: RRIRSRPPRLPRPRPRPFGQPRP
Second: RRIRHRPPRLPRPRPRPLMGPRP
The “shrunken log2 fold change” value of the first is lower: -0.197 for the first, 0.11 for the second.

First: RRIRIRPPRLPRPRPRPEEEPRP
Second: RRIRSRPPRLPRPRPRPDKTPRP
The “shrunken log2 fold change” value of the first is lower: -0.031 for the first, 0.178 for the second.

First: RRIRMRPPRLPRPRPRPSWCPRP
Second: RRIRYRPPRLPRPRPRPELPPRP
The “shrunken log2 fold change” value of the first is higher: 0.387 for the first, 0.0248 for the second.

Compared with RRIRSRPPRLPRPRPRPKNEPRP, RRIRYRPPRLPRPRPRPGSRPRP is lower in “shrunken log2 fold change” value: -0.011 for the first, -0.3 for the second.

Going from RRIRSRPPRLPRPRPRPQTGPRP to RRIRIRPPRLPRPRPRPWMAPRP, the “shrunken log2 fold change” value falls from 0.0318 to -0.547.

RRIRVRPPRLPRPRPRPLDSPRP and RRIRNRPPRLPRPRPRPKNSPRP are within 0.2 log units of each other in “shrunken log2 fold change” value: -0.19 for the first, -0.161 for the second.

RRIRQRPPRLPRPRPRPFWFPRP and RRIRLRPPRLPRPRPRPLWSPRP are within 0.2 log units of each other in “shrunken log2 fold change” value: 0.0862 for the first, 0.0537 for the second.

Compared with RRIRKRPPRLPRPRPRPFMGPRP, RRIRIRPPRLPRPRPRPLSTPRP is lower in “shrunken log2 fold change” value: 0.00448 for the first, -0.599 for the second.

First: RRIRLRPPRLPRPRPRPKNEPRP
Second: RRIRKRPPRLPRPRPRPWARPRP
The “shrunken log2 fold change” value of the first is lower: -0.198 for the first, 0.704 for the second.

Going from RRIRIRPPRLPRPRPRPIAGPRP to RRIRVRPPRLPRPRPRPLRVPRP, the “shrunken log2 fold change” value rises from -0.017 to 0.543.

Going from RRIRPRPPRLPRPRPRPCNRPRP to RRIRPRPPRLPRPRPRPPRNPRP, the “shrunken log2 fold change” value rises from -0.148 to 0.315.

RRIRYRPPRLPRPRPRPQGLPRP and RRIRKRPPRLPRPRPRPMWGPRP are within 0.2 log units of each other in “shrunken log2 fold change” value: 0.0179 for the first, -0.0954 for the second.

Going from RRIRIRPPRLPRPRPRPDHIPRP to RRIRIRPPRLPRPRPRPIYAPRP, the “shrunken log2 fold change” value falls from -0.0811 to -0.758.

First: RRIRIRPPRLPRPRPRPLDRPRP
Second: RRIRSRPPRLPRPRPRPGMNPRP
The “shrunken log2 fold change” value of the first is higher: 0.00847 for the first, -0.249 for the second.

First: RRIRTRPPRLPRPRPRPIIIPRP
Second: RRIRSRPPRLPRPRPRPFWCPRP
The “shrunken log2 fold change” value of the first is lower: -0.219 for the first, -0.0118 for the second.

RRIRIRPPRLPRPRPRPNCGPRP and RRIRSRPPRLPRPRPRPKTTPRP are within 0.2 log units of each other in “shrunken log2 fold change” value: 0.0437 for the first, 0.103 for the second.

First: RRIRSRPPRLPRPRPRPVRQPRP
Second: RRIRLRPPRLPRPRPRPEGSPRP
The “shrunken log2 fold change” value of the first is higher: 0.19 for the first, -0.0436 for the second.

First: RRIRMRPPRLPRPRPRPCVEPRP
Second: RRIRCRPPRLPRPRPRPNYHPRP
The “shrunken log2 fold change” value of the first is higher: 0.755 for the first, -0.93 for the second.

RRIRPRPPRLPRPRPRPNCKPRP and RRIRWRPPRLPRPRPRPWLLPRP are within 0.2 log units of each other in “shrunken log2 fold change” value: -0.048 for the first, -0.0799 for the second.

Going from RRIRTRPPRLPRPRPRPSVDPRP to RRIRIRPPRLPRPRPRPLFCPRP, the “shrunken log2 fold change” value falls from -0.108 to -0.517.

RRIRMRPPRLPRPRPRPGQYPRP and RRIRKRPPRLPRPRPRPNTIPRP are within 0.2 log units of each other in “shrunken log2 fold change” value: -0.00987 for the first, 0.0945 for the second.

RRIRVRPPRLPRPRPRPEYNPRP and RRIRMRPPRLPRPRPRPFRNPRP are within 0.2 log units of each other in “shrunken log2 fold change” value: -0.185 for the first, -0.0431 for the second.

Compared with RRIRDRPPRLPRPRPRPCLIPRP, RRIRTRPPRLPRPRPRPSHMPRP is lower in “shrunken log2 fold change” value: 0.0225 for the first, -0.7 for the second.

Going from RRIRKRPPRLPRPRPRPLFEPRP to RRIRSRPPRLPRPRPRPFDPPRP, the “shrunken log2 fold change” value falls from 0.513 to -0.102.

RRIRNRPPRLPRPRPRPEAQPRP and RRIRERPPRLPRPRPRPLCGPRP are within 0.2 log units of each other in “shrunken log2 fold change” value: -0.0169 for the first, -0.2 for the second.

RRIRMRPPRLPRPRPRPQLEPRP and RRIRQRPPRLPRPRPRPFGTPRP are within 0.2 log units of each other in “shrunken log2 fold change” value: 0.0634 for the first, -0.1 for the second.

Compared with RRIRGRPPRLPRPRPRPCSWPRP, RRIRTRPPRLPRPRPRPNNTPRP is lower in “shrunken log2 fold change” value: 0.19 for the first, -0.518 for the second.

First: RRIRLRPPRLPRPRPRPAEYPRP
Second: RRIRIRPPRLPRPRPRPIYVPRP
The “shrunken log2 fold change” value of the first is higher: -0.0275 for the first, -0.24 for the second.

Compared with RRIRSRPPRLPRPRPRPWMAPRP, RRIRERPPRLPRPRPRPSWVPRP is lower in “shrunken log2 fold change” value: 0.0303 for the first, -0.178 for the second.

Going from RRIRTRPPRLPRPRPRPIAKPRP to RRIRARPPRLPRPRPRPRKGPRP, the “shrunken log2 fold change” value rises from -0.3 to 0.365.

First: RRIRRRPPRLPRPRPRPEVSPRP
Second: RRIRNRPPRLPRPRPRPLNPPRP
The “shrunken log2 fold change” value of the first is higher: 0.214 for the first, -0.133 for the second.

RRIRSRPPRLPRPRPRPGWPPRP and RRIRGRPPRLPRPRPRPLMKPRP are within 0.2 log units of each other in “shrunken log2 fold change” value: 0.692 for the first, 0.635 for the second.

First: RRIRYRPPRLPRPRPRPCPPPRP
Second: RRIRKRPPRLPRPRPRPMRDPRP
The “shrunken log2 fold change” value of the first is lower: -0.839 for the first, 0.0228 for the second.

First: RRIRHRPPRLPRPRPRPKGPPRP
Second: RRIRCRPPRLPRPRPRPYCWPRP
The “shrunken log2 fold change” value of the first is higher: 0.216 for the first, -0.331 for the second.

Going from RRIRLRPPRLPRPRPRPCRGPRP to RRIRPRPPRLPRPRPRPVIVPRP, the “shrunken log2 fold change” value falls from 0.157 to -0.212.

Going from RRIRMRPPRLPRPRPRPGHVPRP to RRIRYRPPRLPRPRPRPYTEPRP, the “shrunken log2 fold change” value falls from 0.329 to 0.034.

RRIRFRPPRLPRPRPRPTGHPRP and RRIRLRPPRLPRPRPRPHTPPRP are within 0.2 log units of each other in “shrunken log2 fold change” value: -0.287 for the first, -0.295 for the second.

With RRIRSRPPRLPRPRPRPMRQPRP the “shrunken log2 fold change” value was 0.728.
